Source: US20160244740A1, “MUTANT CHON[…] I COMPOSITIONS AND METHODS OF THEIR USE” (OHIO STATE INNOVATION FOUNDATION, priority 2013, published 2016)
Read-outs that look alike come from different tables or passages of the source.

Key:
[1] = in vivo; cited from earlier work
[2] = tested on: subcutaneous tumors; details: with adenovirus; cited from earlier work
[3] = tested on: glioma cells; assay: Effect of Chase ABC treatment of glioma cells in vitro on oHSV infection/replication; assay type: cell-based
Text: The tumor's extracellular matrix (ECM) can pose a significant barrier for efficient viral spread, thus limiting virotherapy efficacy. Chondroitin sulfate proteoglycans (CSPG) are one of the major components of glioma ECM. Choindroitinase ABC 1 (Chase ABC) is a bacterial enzyme that can depolymerize this ECM scaffold. Chase ABC mediated digestion of glioma CSPG can enhance oHSV dissemination and efficacy. […] This study examines the mechanism and impact of Chase ABC on oncolysis. Reduced virus replication can contribute to limited oncolytic efficacy of oHSV. Several innovative approaches are currently under investigation including transcriptional retargeting of viruses to drive virulence under the control of tumor-specific promoters. rQNestin34.5 is an oHSV that expresses viral ICP34.5 regulated by glioma-specific nestin promoter in an ICP34.5 deleted viral backbone. […] An oHSV expressing the humanized sequence of Chase ABC within the context of rQNestin34.5 can be used. […] The anti-tumor efficacy of the Chase ABC-expressing oHSV in vitro and in vivo, in glioma can be tested. The impact of the Chase ABC-expressing oHSV on tumor immune cell infiltration and responses can also be tested.

[4] = cited from earlier work; for toxicity/hemorrhages/glial reactivity: repeated injections into brains and spinal cords
[5] = tested on: U87ΔEGFR human glioma spheroids; assay: oHSV spread in organotypic glioma model in presence/absence of Chase ABC; assay type: cell-based; details: 10^4 pfus of rQNestin34.5, presence vs absence of purified Chase ABC, n=3/group
Method: Briefly U87delta EGFR glioma cell line spheroids on Organotypic brain slice cultures were treated with or without purified Chase and then infected with OV. […] Gli36ΔEGFR mice were inoculated with 1×10^6 viral particles on six days (shown by arrows), and percent survival (FIG. 15A) and tumor volume were followed over the course of the study. U87ΔEGFR mice were also inoculated with 1×10^6 viral particles on six days (shown by arrows), and percent survival (FIG. 15B) and tumor volume were followed over the course of the study. U87ΔEGFR mice were also inoculated with 3×10^5 viral particles once ten days after cell implantation (shown by arrow), and percent survival (FIG. 15C) was followed over the course of the study.
As a preliminary result, the effect of Chase ABC treatment on spread by the rQNestin34.5 oHSV was tested in an organotypic glioma model. Briefly, U87ΔEGFR human glioma spheroids (made by the hanging drop method), grown on 300-μm organotypic brain slices from 5-7-day-old mice, were infected with 10^4 pfus of rQNestin34.5, in the presence/absence of Chase ABC. Spread of oHSV in the spheres was visualized by fluorescent imaging of oHSV encoded GFP in infected cells (n=3/group).

In the case of collagenase, the intratumoral hemorrhages [1] is given as “intratumoral hemorrhages occurred in many tumors”.

For hyaluronidase, the “viral spread and therapeutic efficacy” value [2] is listed as “increased viral spread and therapeutic efficacy”.

B1: Chase ABC: bacterial enzyme, chondroitin-sulfate-ABC endolyase; bacterially produced and purified (Seikagaku Inc) (protein, UniProt P59807 25-1021, looked up)
Chondroitin sulfate ABC …: ATSNPAFDPKNLMQSEIYHFAQNNPLADFSSDKNSILTLSDKRSIMGNQSLLWKWKGGSSFTLHKKLIVPTDKEASKAWGRSSTPVFSFWLYNEKPIDGYLTIDFGEKLISTSEAQAGFKVKLDFTGWRAVGVSLNNDLENREMTLNATNTSSDGTQDSIGRSLGAKVDSIRFKAPSNVSQGEIYIDRIMFSVDDARYQWSDYQVKTRLSEPEIQFHNVKPQLPVTPENLAAIDLIRQRLINEFVGGEKETNLALEENISKLKSDFDALNIHTLANGGTQGRHLITDKQIIIYQPENLNSQDKQLFDNYVILGNYTTLMFNISRAYVLEKDPTQKAQLKQMYLLMTKHLLDQGFVKGSALVTTHHWGYSSRWWYISTLLMSDALKEANLQTQVYDSLLWYSREFKSSFDMKVSADSSDLDYFNTLSRQHLALLLLEPDDQKRINLVNTFSHYITGALTQVPPGGKDGLRPDGTAWRHEGNYPGYSFPAFKNASQLIYLLRDTPFSVGESGWNNLKKAMVSAWIYSNPEVGLPLAGRHPFNSPSLKSVAQGYYWLAMSAKSSPDKTLASIYLAISDKTQNESTAIFGETITPASLPQGFYAFNGGAFGIHRWQDKMVTLKAYNTNVWSSEIYNKDNRYGRYQSHGVAQIVSNGSQLSQGYQQEGWDWNRMQGATTIHLPLKDLDSPKPHTLMQRGERGFSGTSSLEGQYGMMAFDLIYPANLERFDPNFTAKKSVLAADNHLIFIGSNINSSDKNKNVETTLFQHAITPTLNTLWINGQKIENMPYQTTLQQGDWLIDSNGNGYLITQAEKVNVSRQHQVSAENKNRQPTEGNFSSAWIDHSTRPKDASYEYMVFLDATPEKMGEMAQKFRENNGLYQVLRKDKDVHIILDKLSNVTGYAFYQPASIEDKWIKKVNKPAIVMTHRQKDTLIVSAVTPDLNMTRQKAATPVTINVTINGKWQSADKNSEVKYQVSGDNTELTFTSYFGIPQEIKLSPLP
For B1, the oHSV infection/replication [3] is given as “does not negatively affect oHSV infection/replication”, the “loss of neurons, alterations of their structure, reactions of glial cells” value ([4]; intracerebral injections, immediately or after five months of treatment) is given as “did not reveal loss of neurons or alterations of their structure nor reactions of glial cells” and the toxicity/hemorrhages/glial reactivity [4] is given as “have not been associated with deleterious effects”. For the same molecule, the toxicity/hemorrhages/glial reactivity ([4]; listed as purified Chase ABC) was “absence of toxicity/hemorrhages/glial reactivity”, the “oHSV spread in spheres (GFP imaging)” value [5] was “increase in viral spread” and the “oHSV spread in spheres (GFP imaging)” value ([5]; listed as purified Chase ABC) was “increased oHSV spread within all three glioma spheroids”.
